The record followed here is the supplement of paper PMC9170038.

The subject of the data set is MS2 coat protein. Briefly: apparent KD of MS2 coat protein; designed switch direction (-1 OFF switch, 1 ON switch): -1; higher = weaker reporter binding. The essentials:
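Normalised cluster fluorescence was curve-fitted, and each design's median over clusters is its apparent KD. Before this, SNAP-549-labelled MS2 coat protein was titrated from 0.7 or 1.5 nM, doubling to 3 µM, over RNA switches transcribed on Illumina chips by stalled E. coli RNA polymerase. Titrations had no input, 200 uM small-molecule ligand, or an oligonucleotide input, and steps lasted 0.8–1.5 h (lowest) to 10–20 min (highest).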

Setting [1] is: input ligand: microRNA oligo, concentration not stated.
Setting [2] is: Eterna round: R95, input ligand: FMN 200 uM.
[3] abbreviates: Eterna round: R95, input ligand: microRNA oligo, concentration not stated.
[4] abbreviates: Eterna round: R95, input ligand: none.

For the sequence “AUGAUAUAACAGGAUAUUUGGCGCGGAUGCAGAGAAGAAGGGUUGACAUGAGGAUCACCCAUGUGAUCCUUCAA [Eternabot (L1) Solution 18] (Eterna round: R97, puzzle: Exclusion 6)”, the “apparent KD of MS2 coat protein” value reads like this: (input ligand: FMN 200 uM) 20.1 nM; (input ligand: none) 14.3 nM.
Turning to “AUGCCCUGAGGAUAUCUCAUCCCGCACAUGAGGAUCACCCAUGUUCUUCUCCGGGCUCCGAGAGAAGGCAGGCCUA [Armus6] (Eterna round: R97, puzzle: Exclusion 5)”, the “apparent KD of MS2 coat protein” value worked out at 68.2 nM (input ligand: FMN 200 uM) and 102 nM (input ligand: none).
Turning to “AUGGGUCCUCUCGGAGCUACAUGAGGAUCACCCAUGUGUAUUGAGGAUAUCCACUGCUCAGGACGGGAGAAGGCAGUGUACUGU [Ex NG3 #87] (Eterna round: R96, puzzle: Exclusion NG 3)”, the “apparent KD of MS2 coat protein” value by setting is: (input ligand: FMN 200 uM) 51.4 nM; under setting [1], 46.3 nM; (input ligand: none) 58.4 nM.
Consider “AUGUACCGGUGAGGAUAUUUUUAAUAGAGCUUUAUGAUAUACAUGAGGAUCACCCAUGUUACUUUAAAGAAGGCAUCGGAUUAA [Mat - Exclusion NG 2 - Mod of JL - D90] (Eterna round: R96, puzzle: Exclusion NG 2)”, for which the “apparent KD of MS2 coat protein” value under setting [1] was 12.8 nM.
“AUGUGCACGCUGCGAUCCUACAUGAGGAUCACCCAUGUGGUCUGGUGGCGUGGGUCACCGGACUUGGCUCGUCUUGU [salish99_S_TOV1_R5_081] (Eterna round: R97, puzzle: Sensor, turn-off variant 1)”: the “apparent KD of MS2 coat protein” value came out at 62.1 nM (input ligand: FMN 200 uM) and 77.8 nM (input ligand: none).
“AUGUUGCGAGGAUAUAUAAGGGUAUAAUAAUAAGAUAUGGAACAUGAGGAUCACCCAUGUAGAAGGUGCAUAAC [JR_Ex2_Sub040] (Eterna round: R97, puzzle: Exclusion 2)”: the “apparent KD of MS2 coat protein” value (input ligand: FMN 200 uM) turned out to be 840 nM and the “apparent KD of MS2 coat protein” value (input ligand: none) worked out at 21.1 nM.
On to “AUGUUGCGAGGAUAUAUUUACUUGUUGUUAUUUGGUUGGGAACAUGAGGAUCACCCAUGUAGAAGGUGCAUAAC [JR_Ex2_Sub035] (Eterna round: R97, puzzle: Exclusion 2)”, for which the “apparent KD of MS2 coat protein” value amounted to 58.9 nM (input ligand: FMN 200 uM) and 62.5 nM (input ligand: none).
Regarding “AUUAAAACAUAGGAUAUCGAAAUUAUUAUUUAACGAGAAGGAUGAACAUGAGGAUCACCCAUGUGGUAUCAUGG [Mat - Exclusion 6 - JL Mod - D28] (puzzle: Exclusion 6)”, the “apparent KD of MS2 coat protein” value reads like this: under setting [2], 307 nM; under setting [3], 367 nM; under setting [4], 610 nM.
Turning to “AUUAUGUUAGGAUAUGCUUAUGGUGGAUAAUCGGAUAUGAUGCAGAAGGGACAUGAGGAUCACCCAUGUACUGA [EX4 #24] (Eterna round: R97, puzzle: Exclusion 4)”, the “apparent KD of MS2 coat protein” value (input ligand: FMN 200 uM) is 22.3 nM and the “apparent KD of MS2 coat protein” value (input ligand: none) turned out to be 22.7 nM.
For “AUUAUGUUAGGAUAUGCUUAUGGUGGAUAGUCCAGUAUGGUGUAGAAGGGACAUGAGGAUCACCCAUGUGCUGA [EX4 #33] (Eterna round: R97, puzzle: Exclusion 4)”, in that order: 35.2 nM and 34 nM.
Consider “AUUGUAUGGAAAGGAUAUAGAAUAUUAUUUUAACAUGAGGAUCACCCAUGUAACCUUAUGUGUAGCUAGAAGGUUCGUUUGUUA [Title] (Eterna round: R96, puzzle: Exclusion NG 2)”, for which, under setting [1], the “apparent KD of MS2 coat protein” value came out at 69.2 nM.
Turning to “AUUGUGUUAGGAUAUAACAACUACUAAUAAAUUAGUAGUUGUUAGAAGGAACAUGAGGAUCACCCAUGUAUGAU [-21.1, -20.3 kcal, A 38%] (Eterna round: R97, puzzle: Exclusion 4)”, the “apparent KD of MS2 coat protein” value runs as follows: (input ligand: FMN 200 uM) 60 nM; (input ligand: none) 29.4 nM.
For the sequence “AUUGUGUUAGGAUAUGCUUAUGGUGGGUAGUCCAGUAUGGAGUAGAAGGGACAUGAGGAUCACCCAUGUGCUCA [EX4 #38] (Eterna round: R97, puzzle: Exclusion 4)”, the “apparent KD of MS2 coat protein” value is 215 nM (input ligand: FMN 200 uM) and 137 nM (input ligand: none).
Regarding “AUUGUUUAUGUAGGAUAUGCCUGGCGUGCCUUCGCAGAAGGACAUGAGGAUCACCCAUGUAUUGCGGUCUGCGUUCAGAUCGCC [salish99_ExNG1_r4_027] (Eterna round: R96, puzzle: Exclusion NG 1)”, the “apparent KD of MS2 coat protein” value is, setting by setting: (input ligand: FMN 200 uM) 21.3 nM; under setting [1], 15 nM; (input ligand: none) 19.3 nM.
Regarding “AUUGUUUAUGUAGGAUAUGCCUGGCGUGCCUUUGCAGAAGGACAUGAGGAUCACCCAUGUAACAUGAGGCUCACCCAUGUCGCU [salish99_ExNG1_r04_112] (Eterna round: R96, puzzle: Exclusion NG 1)”, the “apparent KD of MS2 coat protein” value turned out to be 432 nM (input ligand: FMN 200 uM), 220 nM under setting [1] and 311 nM (input ligand: none).
For “AUUUAAUUUAGCGAGAUCACAUGAGGAUCACCCAUGUAUAUAUAGGAUAUCAGCUCGUUUAGAGCUGAGAAGGAUAUAUACCGC [ExNG3/7-A2] (Eterna round: R96, puzzle: Exclusion NG 3)”, the “apparent KD of MS2 coat protein” value under setting [1] came out at 74 nM.
In the case of “AUUUGCACGCUGCGGUCCUACAUGAGGAUCACCCAUGUGGUCUGGUGGCGUGGGUCGCCGGACUUGGCUCGUCUUGA [salish99_S_TOV1_R5_032] (Eterna round: R97, puzzle: Sensor, turn-off variant 1)”, the “apparent KD of MS2 coat protein” value (input ligand: FMN 200 uM) is 17.5 nM and the “apparent KD of MS2 coat protein” value (input ligand: none) is 17.9 nM.
Regarding “AUUUUAAUAUAGGAUAUCGAAUUUAUUAUUUAACGAGAAGGAUGAACAUGAGGAUCACCCAUGUGGUAUCAUGG [JL-ex6-3.03] (puzzle: Exclusion 6)”, the “apparent KD of MS2 coat protein” value reads like this: under setting [2], 214 nM; under setting [3], 263 nM; under setting [4], 178 nM.
Regarding “AUUUUGUCAGGAUAUGACUAGUAGCACGAAAGUGCUACUACUUAGAAGGGACAUGAGGAUCACCCAUGUAUUCC [Bring Us a Shrubbery-10] (puzzle: Exclusion 4)”, the “apparent KD of MS2 coat protein” value under setting [3] was 15.1 nM.
Take “AUUUUGUCAGGAUAUUGUUAGUUUAGUUGUUUGUAUUAGUUCGAGAAGGGACAUGAGGAUCACCCAUGUGAAAA [Ex4 #71] (Eterna round: R97, puzzle: Exclusion 4)”: the “apparent KD of MS2 coat protein” value (input ligand: FMN 200 uM) was 38.9 nM and the “apparent KD of MS2 coat protein” value (input ligand: none) was 37.2 nM.
Take “CAAAAGAAAGGAUAUACUUGAGGAUCACCCAAGUAUGCCCGCUGAAGCGGGCCCUUGAGUAGAAGGUUCAUAAA [Ened] (Eterna round: R97, puzzle: Exclusion 3)”: the “apparent KD of MS2 coat protein” value (input ligand: FMN 200 uM) is 33.2 nM and the “apparent KD of MS2 coat protein” value (input ligand: none) was found to be 15.6 nM.
For the sequence “CAAAAGCUAGGAUAUACAUGAGGAUCACCCAUGUCGCACUCUAGACACGCCAUACAUAGUAGAAGGAGCAAUCU [EX3 B.18] (Eterna round: R97, puzzle: Exclusion 3)”, the “apparent KD of MS2 coat protein” value is, setting by setting: (input ligand: FMN 200 uM) 21.7 nM; (input ligand: none) 17.9 nM.
Regarding “CAAGCAGAAUAAAGGUCCGACAUGAGGAUCACCCAUGUUCGUCGGGAUAUGCUUCCUUUACGAGGGAGCACCAGAAA [Eternabot (L2) Solution 25] (Eterna round: R97, puzzle: Sensor, turn-off variant 1)”, the “apparent KD of MS2 coat protein” value by setting is: (input ligand: FMN 200 uM) 34.3 nM; (input ligand: none) 38.2 nM.
In the case of “CAAUAUUACUGAGGAUAUCCUAGUGUAUUUCAGGGAGAAGGCGGACUCAACAUGAGGAUCACCCAUGUAAGACGGGUACUAGAU [Ex NG1 #17] (Eterna round: R96, puzzle: Exclusion NG 1)”, the “apparent KD of MS2 coat protein” value came to 89.3 nM (input ligand: FMN 200 uM), 42.7 nM under setting [1] and 81.4 nM (input ligand: none).
With “CACAUGGGAACAUGAGGAUCACCCAUGUGAUAGAAAGGUAUGGAGGAUAUCAUACCAUCGCCGUGUGAGAAGGUCAGGCCAACA [Eternabot solution 46] (Eterna round: R96, puzzle: Exclusion NG 3)”, the “apparent KD of MS2 coat protein” value runs as follows: (input ligand: FMN 200 uM) 409 nM; under setting [1], 151 nM; (input ligand: none) 388 nM.
For the sequence “CACCGUUAACUAGGAUAUCGUACAUGAGGAUCACCCAUGUAAUAAAUGAGAAUUUCGGAUGUAUGCGAGAAGGAGUAAAUCGGC [Ostricism 46 - Jieux - Exclusion NG 2] (Eterna round: R96, puzzle: Exclusion NG 2)”, the “apparent KD of MS2 coat protein” value was determined as 40.8 nM (input ligand: FMN 200 uM), 27.6 nM under setting [1] and 37.3 nM (input ligand: none).
For “CACCGUUACACAGGAUAUGUUACAUGAGGAUCACCCAUGUAAUAAAUGAGAAUUUCGAAUGUAAUACAGAAGGGUGGAAUCGGC [Ostricism 73 - Jieux - Exclusion NG 2] (Eterna round: R96, puzzle: Exclusion NG 2)”, the “apparent KD of MS2 coat protein” value (input ligand: FMN 200 uM) stood at 34.7 nM, the “apparent KD of MS2 coat protein” value under setting [1] is 27.9 nM and the “apparent KD of MS2 coat protein” value (input ligand: none) was 28.4 nM.
In the case of “CACCGUUACAGAGGAUAUGAUACAUGAGGAUCACCCAUGUAAUAAAUGAGAAUUUCGAAUGUACCUCAGAAGGCUGGAACCGGC [Ostricism 79 - Jieux - Exclusion NG 2] (Eterna round: R96, puzzle: Exclusion NG 2)”, the “apparent KD of MS2 coat protein” value under setting [1] is 31.1 nM.
Turning to “CACCGUUACGUAGGAUAUAGUACAUGAGGAUCACCCAUGUAAUAAAUGAGAAUUUCGGAUGUAUGCUAGAAGGACGAAAUCGGC [Ostricism 50 - Jieux - Exclusion NG 2] (Eterna round: R96, puzzle: Exclusion NG 2)”, under setting [1], the “apparent KD of MS2 coat protein” value turned out to be 39.9 nM.
For the sequence “CACCGUUAGUGAGGAUAUAGUACAUGAGGAUCACCCAUGUAAUAAAUGAGAAUUUCGGAUGUAUGCUAGAAGGCACAAAUCGGC [Ostricism 51 - Jieux - Exclusion NG 2] (Eterna round: R96, puzzle: Exclusion NG 2)”, the “apparent KD of MS2 coat protein” value under setting [1] came to 47.2 nM.
On to “CACGAAGAGUGAGGAUAUGUGCGACAAAGUUGCACAGAAGGCACAUGAGGAUCACCCAUGUAAGCUAGGUCGAAAGACCUAGCG [Omei Exc(NG)1 Av3] (Eterna round: R96, puzzle: Exclusion NG 1)”, for which the “apparent KD of MS2 coat protein” value by setting is: (input ligand: FMN 200 uM) 47.5 nM; under setting [1], 20.2 nM; (input ligand: none) 23.8 nM.
